Measured values published in patent US20240343771A1 (Chugai, published 2024).

T1: human IL-12 (human, UniProt P29460 23-328; P29459 23-219)
T1 construct: also called Interleukin-12
T1 sequence 1: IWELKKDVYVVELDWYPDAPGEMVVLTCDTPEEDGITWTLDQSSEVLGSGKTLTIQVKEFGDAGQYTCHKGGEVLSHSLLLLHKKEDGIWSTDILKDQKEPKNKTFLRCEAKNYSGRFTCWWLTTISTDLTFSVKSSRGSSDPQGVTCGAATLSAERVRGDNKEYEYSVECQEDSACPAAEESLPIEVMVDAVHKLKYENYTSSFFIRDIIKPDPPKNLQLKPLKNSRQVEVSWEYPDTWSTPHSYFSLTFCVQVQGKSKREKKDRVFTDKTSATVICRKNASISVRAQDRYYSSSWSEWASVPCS
T1 sequence 2: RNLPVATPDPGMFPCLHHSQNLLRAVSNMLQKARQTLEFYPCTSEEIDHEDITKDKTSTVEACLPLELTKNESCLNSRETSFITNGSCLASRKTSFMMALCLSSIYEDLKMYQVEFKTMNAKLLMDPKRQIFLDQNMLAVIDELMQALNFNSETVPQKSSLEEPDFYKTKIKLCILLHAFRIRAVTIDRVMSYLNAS


Molecular target: T1, human IL-12
Test: SPR (Biacore T200), 37 C, pH 7.4; captured antibody, IL-12 analyte
Description: The affinity of anti-IL-12 antibodies binding to human IL-12 at pH 7.4 were determined at 37 degrees C. using Biacore T200 instrument (Cytiva). Anti-human Fc antibody (Cytiva) was immobilized onto all flow cells (FCs) of a CM4 sensor chip using amine coupling kit (Cytiva). All antibodies and analytes were prepared in ACES pH 7.4 containing 20 mM ACES, 150 mM NaCl, 0.05% Tween 20, 0.005% NaN₃. Each antibody was captured onto the sensor surface by anti-human Fc antibody. Antibody capture levels were aimed at 50 response unit (RU). 5 nM of human IL-12 were injected as analyte, followed by dissociation. Sensor surface was regenerated each cycle with 3M MgCl₂. […] Based on the results in Table 9, it is observed that binding kinetics of anti-IL-12 antibody AbI variants towards IL-12 were not drastically changed compared to control (−/−).

Binder	Kd [nM]
Anti-IL-12 antibody Ab1 variant V37S VH/Y49A, Y87L VL (antibody, name in Kabat numbering, V domains shown, Ab1 with VH/VL interface substitutions; Kabat numbering) VH: QVQLVQSGAEVKKPGSSVKVSCKASGGTFSDYYLHWSRQAPGQGLEWMGWIDPENGDTEYAPKFQGRVTITADESTSTAYMELSSLRSEDTAVYYCARNKELRYFDVWGQGTLVTVSS VL: DIVMTQSPLSLPVTPGEPASISCRASQSISINLHWYQQKPGQAPRLLIAFASQSISGVPSRFSGSGSGTDFTLTISSLQPEDFATYLCQQSNSFPLTFGQGTKVEIKR	3.04
Anti-IL-12 antibody Ab1 variant V37S, L45Q VH/Y49A, Y87M VL (antibody, name in Kabat numbering, V domains shown, Ab1 with VH/VL interface substitutions; Kabat numbering) VH: QVQLVQSGAEVKKPGSSVKVSCKASGGTFSDYYLHWSRQAPGQGQEWMGWIDPENGDTEYAPKFQGRVTITADESTSTAYMELSSLRSEDTAVYYCARNKELRYFDVWGQGTLVTVSS VL: DIVMTQSPLSLPVTPGEPASISCRASQSISINLHWYQQKPGQAPRLLIAFASQSISGVPSRFSGSGSGTDFTLTISSLQPEDFATYMCQQSNSFPLTFGQGTKVEIKR	2.92
Anti-IL-12 antibody Ab1 variant W103I VH/A43Q, Y49A VL (antibody, name in Kabat numbering, Ab1 with VH/VL interface substitutions; Kabat numbering) heavy: not shown light: DIVMTQSPLSLPVTPGEPASISCRASQSISINLHWYQQKPGQQPRLLIAFASQSISGVPSRFSGSGSGTDFTLTISSLQPEDFATYYCQQSNSFPLTFGQGTKVEIKRTVAAPSVFIFPPSDEQLKSGTASVVCLLNNFYPREAKVQWKVDNALQSGNSQESVTEQDSKDSTYSLSSTLTLSKADYEKHKVYACEVTHQGLSSPVTKSFNRGEC	1.6
Anti-IL-12 antibody Ab1 variant V37S, F100aI VH/L46Q, Y49A VL (antibody, name in Kabat numbering, V domains shown, Ab1 with VH/VL interface substitutions; Kabat numbering) VH: QVQLVQSGAEVKKPGSSVKVSCKASGGTFSDYYLHWSRQAPGQGLEWMGWIDPENGDTEYAPKFQGRVTITADESTSTAYMELSSLRSEDTAVYYCARNKELRYIDVWGQGTLVTVSS VL: DIVMTQSPLSLPVTPGEPASISCRASQSISINLHWYQQKPGQAPRQLIAFASQSISGVPSRFSGSGSGTDFTLTISSLQPEDFATYYCQQSNSFPLTFGQGTKVEIKR	2.98
Anti-IL-12 antibody Ab1 variant W103I VH/P44A, Y49A VL (antibody, name in Kabat numbering, Ab1 with VH/VL interface substitutions; Kabat numbering) heavy: not shown light: DIVMTQSPLSLPVTPGEPASISCRASQSISINLHWYQQKPGQAARLLIAFASQSISGVPSRFSGSGSGTDFTLTISSLQPEDFATYYCQQSNSFPLTFGQGTKVEIKRTVAAPSVFIFPPSDEQLKSGTASVVCLLNNFYPREAKVQWKVDNALQSGNSQESVTEQDSKDSTYSLSSTLTLSKADYEKHKVYACEVTHQGLSSPVTKSFNRGEC	1.57
Anti-IL-12 antibody Ab1 variant W103M VH/L46Q, Y49A VL (antibody, name in Kabat numbering, Ab1 with VH/VL interface substitutions; Kabat numbering) heavy: not shown light: DIVMTQSPLSLPVTPGEPASISCRASQSISINLHWYQQKPGQAPRQLIAFASQSISGVPSRFSGSGSGTDFTLTISSLQPEDFATYYCQQSNSFPLTFGQGTKVEIKRTVAAPSVFIFPPSDEQLKSGTASVVCLLNNFYPREAKVQWKVDNALQSGNSQESVTEQDSKDSTYSLSSTLTLSKADYEKHKVYACEVTHQGLSSPVTKSFNRGEC	3.52
Anti-IL-12 antibody Ab1 variant W103L VH/Y49A, Y87L VL (antibody, name in Kabat numbering, Ab1 with VH/VL interface substitutions; Kabat numbering) heavy: not shown light: DIVMTQSPLSLPVTPGEPASISCRASQSISINLHWYQQKPGQAPRLLIAFASQSISGVPSRFSGSGSGTDFTLTISSLQPEDFATYLCQQSNSFPLTFGQGTKVEIKRTVAAPSVFIFPPSDEQLKSGTASVVCLLNNFYPREAKVQWKVDNALQSGNSQESVTEQDSKDSTYSLSSTLTLSKADYEKHKVYACEVTHQGLSSPVTKSFNRGEC	1.51
Anti-IL-12 antibody Ab1 variant W103I VH/L46Q, Y49A VL (antibody, name in Kabat numbering, Ab1 with VH/VL interface substitutions; Kabat numbering) heavy: not shown light: DIVMTQSPLSLPVTPGEPASISCRASQSISINLHWYQQKPGQAPRQLIAFASQSISGVPSRFSGSGSGTDFTLTISSLQPEDFATYYCQQSNSFPLTFGQGTKVEIKRTVAAPSVFIFPPSDEQLKSGTASVVCLLNNFYPREAKVQWKVDNALQSGNSQESVTEQDSKDSTYSLSSTLTLSKADYEKHKVYACEVTHQGLSSPVTKSFNRGEC	4.86
Anti-IL-12 antibody Ab1 variant V37S, Y91M VH/A43Q, Y49A VL (antibody, name in Kabat numbering, V domains shown, Ab1 with VH/VL interface substitutions; Kabat numbering) VH: QVQLVQSGAEVKKPGSSVKVSCKASGGTFSDYYLHWSRQAPGQGLEWMGWIDPENGDTEYAPKFQGRVTITADESTSTAYMELSSLRSEDTAVYMCARNKELRYFDVWGQGTLVTVSS VL: DIVMTQSPLSLPVTPGEPASISCRASQSISINLHWYQQKPGQQPRLLIAFASQSISGVPSRFSGSGSGTDFTLTISSLQPEDFATYYCQQSNSFPLTFGQGTKVEIKR	1.79
Anti-IL-12 antibody Ab1 variant V37S, Y91M VH/L46Q, Y49A VL (antibody, name in Kabat numbering, V domains shown, Ab1 with VH/VL interface substitutions; Kabat numbering) VH: QVQLVQSGAEVKKPGSSVKVSCKASGGTFSDYYLHWSRQAPGQGLEWMGWIDPENGDTEYAPKFQGRVTITADESTSTAYMELSSLRSEDTAVYMCARNKELRYFDVWGQGTLVTVSS VL: DIVMTQSPLSLPVTPGEPASISCRASQSISINLHWYQQKPGQAPRQLIAFASQSISGVPSRFSGSGSGTDFTLTISSLQPEDFATYYCQQSNSFPLTFGQGTKVEIKR	3.44
Anti-IL-12 antibody Ab1 variant W103L VH/L46Q, Y49A VL (antibody, name in Kabat numbering, Ab1 with VH/VL interface substitutions; Kabat numbering) heavy: not shown light: DIVMTQSPLSLPVTPGEPASISCRASQSISINLHWYQQKPGQAPRQLIAFASQSISGVPSRFSGSGSGTDFTLTISSLQPEDFATYYCQQSNSFPLTFGQGTKVEIKRTVAAPSVFIFPPSDEQLKSGTASVVCLLNNFYPREAKVQWKVDNALQSGNSQESVTEQDSKDSTYSLSSTLTLSKADYEKHKVYACEVTHQGLSSPVTKSFNRGEC	3.86
Anti-IL-12 antibody Ab1 variant V37S, L45Q VH/A43Q, Y49A VL (antibody, name in Kabat numbering, V domains shown, Ab1 with VH/VL interface substitutions; Kabat numbering) VH: QVQLVQSGAEVKKPGSSVKVSCKASGGTFSDYYLHWSRQAPGQGQEWMGWIDPENGDTEYAPKFQGRVTITADESTSTAYMELSSLRSEDTAVYYCARNKELRYFDVWGQGTLVTVSS VL: DIVMTQSPLSLPVTPGEPASISCRASQSISINLHWYQQKPGQQPRLLIAFASQSISGVPSRFSGSGSGTDFTLTISSLQPEDFATYYCQQSNSFPLTFGQGTKVEIKR	3.13

The next binders have a lower Kd than those just listed; values first:

Kd [nM]	Binder
0.828	Anti-IL-12 antibody Ab1 variant V37S, W103M VH/A43Q, Y49A VL (antibody, name in Kabat numbering, Ab1 with VH/VL interface substitutions; Kabat numbering) heavy: not shown light: DIVMTQSPLSLPVTPGEPASISCRASQSISINLHWYQQKPGQQPRLLIAFASQSISGVPSRFSGSGSGTDFTLTISSLQPEDFATYYCQQSNSFPLTFGQGTKVEIKRTVAAPSVFIFPPSDEQLKSGTASVVCLLNNFYPREAKVQWKVDNALQSGNSQESVTEQDSKDSTYSLSSTLTLSKADYEKHKVYACEVTHQGLSSPVTKSFNRGEC
1.45	Anti-IL-12 antibody Ab1 variant W103M VH/A43Q, Y49A VL (antibody, name in Kabat numbering, Ab1 with VH/VL interface substitutions; Kabat numbering) heavy: not shown light: DIVMTQSPLSLPVTPGEPASISCRASQSISINLHWYQQKPGQQPRLLIAFASQSISGVPSRFSGSGSGTDFTLTISSLQPEDFATYYCQQSNSFPLTFGQGTKVEIKRTVAAPSVFIFPPSDEQLKSGTASVVCLLNNFYPREAKVQWKVDNALQSGNSQESVTEQDSKDSTYSLSSTLTLSKADYEKHKVYACEVTHQGLSSPVTKSFNRGEC
0.631	Anti-IL-12 antibody Ab1 variant W103M VH/- (antibody, name in Kabat numbering, Ab1 with VH/VL interface substitutions; Kabat numbering) heavy: not shown light: DIVMTQSPLSLPVTPGEPASISCRASQSISINLHWYQQKPGQAPRLLIYFASQSISGVPSRFSGSGSGTDFTLTISSLQPEDFATYYCQQSNSFPLTFGQGTKVEIKRTVAAPSVFIFPPSDEQLKSGTASVVCLLNNFYPREAKVQWKVDNALQSGNSQESVTEQDSKDSTYSLSSTLTLSKADYEKHKVYACEVTHQGLSSPVTKSFNRGEC
0.549	Anti-IL-12 antibody Ab1 variant W103L VH/- (antibody, name in Kabat numbering, Ab1 with VH/VL interface substitutions; Kabat numbering) heavy: not shown light: DIVMTQSPLSLPVTPGEPASISCRASQSISINLHWYQQKPGQAPRLLIYFASQSISGVPSRFSGSGSGTDFTLTISSLQPEDFATYYCQQSNSFPLTFGQGTKVEIKRTVAAPSVFIFPPSDEQLKSGTASVVCLLNNFYPREAKVQWKVDNALQSGNSQESVTEQDSKDSTYSLSSTLTLSKADYEKHKVYACEVTHQGLSSPVTKSFNRGEC
1.34	Anti-IL-12 antibody Ab1 variant W103L VH/P44A, Y49A VL (antibody, name in Kabat numbering, Ab1 with VH/VL interface substitutions; Kabat numbering) heavy: not shown light: DIVMTQSPLSLPVTPGEPASISCRASQSISINLHWYQQKPGQAARLLIAFASQSISGVPSRFSGSGSGTDFTLTISSLQPEDFATYYCQQSNSFPLTFGQGTKVEIKRTVAAPSVFIFPPSDEQLKSGTASVVCLLNNFYPREAKVQWKVDNALQSGNSQESVTEQDSKDSTYSLSSTLTLSKADYEKHKVYACEVTHQGLSSPVTKSFNRGEC
1.12	Anti-IL-12 antibody Ab1 variant V37S, F100aI VH/A43Q, Y49A VL (antibody, name in Kabat numbering, V domains shown, Ab1 with VH/VL interface substitutions; Kabat numbering) VH: QVQLVQSGAEVKKPGSSVKVSCKASGGTFSDYYLHWSRQAPGQGLEWMGWIDPENGDTEYAPKFQGRVTITADESTSTAYMELSSLRSEDTAVYYCARNKELRYIDVWGQGTLVTVSS VL: DIVMTQSPLSLPVTPGEPASISCRASQSISINLHWYQQKPGQQPRLLIAFASQSISGVPSRFSGSGSGTDFTLTISSLQPEDFATYYCQQSNSFPLTFGQGTKVEIKR
0.331	Anti-IL-12 antibody Ab1 variant W103A VH/- (antibody, name in Kabat numbering, Ab1 with VH/VL interface substitutions; Kabat numbering) heavy: not shown light: DIVMTQSPLSLPVTPGEPASISCRASQSISINLHWYQQKPGQAPRLLIYFASQSISGVPSRFSGSGSGTDFTLTISSLQPEDFATYYCQQSNSFPLTFGQGTKVEIKRTVAAPSVFIFPPSDEQLKSGTASVVCLLNNFYPREAKVQWKVDNALQSGNSQESVTEQDSKDSTYSLSSTLTLSKADYEKHKVYACEVTHQGLSSPVTKSFNRGEC
1.12	Anti-IL-12 antibody Ab1 variant W103L VH/A43Q, Y49A VL (antibody, name in Kabat numbering, Ab1 with VH/VL interface substitutions; Kabat numbering) heavy: not shown light: DIVMTQSPLSLPVTPGEPASISCRASQSISINLHWYQQKPGQQPRLLIAFASQSISGVPSRFSGSGSGTDFTLTISSLQPEDFATYYCQQSNSFPLTFGQGTKVEIKRTVAAPSVFIFPPSDEQLKSGTASVVCLLNNFYPREAKVQWKVDNALQSGNSQESVTEQDSKDSTYSLSSTLTLSKADYEKHKVYACEVTHQGLSSPVTKSFNRGEC
